# From patent US20190194280A1
# Assays:
# [1] = target: Serum samples collected at week 16 from patients immunized with UBI AD vaccine (UB-311); assay: comp. ELISA, serum P101
# [2] = target: Serum samples collected at week 16 from patients immunized with UBI AD vaccine (UB-311); assay: comp. ELISA, serum P102
# [3] = target: Serum samples collected at week 16 from patients immunized with UBI AD vaccine (UB-311); assay: comp. ELISA, serum P103
# [4] = target: Serum samples collected at week 16 from patients immunized with UBI AD vaccine (UB-311); assay: comp. ELISA, serum P104
# [5] = target: Serum samples collected at week 16 from patients immunized with UBI AD vaccine (UB-311); assay: comp. ELISA, serum P105
# [6] = target: Serum samples collected at week 16 from patients immunized with UBI AD vaccine (UB-311); assay: comp. ELISA, serum P106
# [7] = target: Serum samples collected at week 16 from patients immunized with UBI AD vaccine (UB-311); assay: comp. ELISA, serum P107
# [8] = target: Serum samples collected at week 16 from patients immunized with UBI AD vaccine (UB-311); assay: comp. ELISA, serum P108
# [9] = target: Serum samples collected at week 16 from patients immunized with UBI AD vaccine (UB-311); assay: comp. ELISA, serum P109
# [10] = target: Serum samples collected at week 16 from patients immunized with UBI AD vaccine (UB-311); assay: comp. ELISA, serum P201
# [11] = target: Serum samples collected at week 16 from patients immunized with UBI AD vaccine (UB-311); assay: comp. ELISA, serum P202
# [12] = target: Serum samples collected at week 16 from patients immunized with UBI AD vaccine (UB-311); assay: comp. ELISA, serum P203
# [13] = target: Serum samples collected at week 16 from patients immunized with UBI AD vaccine (UB-311); assay: comp. ELISA, serum P204
# [14] = target: Serum samples collected at week 16 from patients immunized with UBI AD vaccine (UB-311); assay: comp. ELISA, serum P205
# [15] = target: Serum samples collected at week 16 from patients immunized with UBI AD vaccine (UB-311); assay: comp. ELISA, serum P206
# [16] = target: Serum samples collected at week 16 from patients immunized with UBI AD vaccine (UB-311); assay: comp. ELISA, serum P207
# [17] = target: Serum samples collected at week 16 from patients immunized with UBI AD vaccine (UB-311); assay: comp. ELISA, serum P208
# [18] = target: Serum samples collected at week 16 from patients immunized with UBI AD vaccine (UB-311); assay: comp. ELISA, serum P209
# [19] = target: Serum samples collected at week 16 from patients immunized with UBI AD vaccine (UB-311); assay: comp. ELISA, serum P210
# [20] = target: Immune sera of baboons immunized with UBI AD vaccine; assay: competitive inhibition ELISA
Binder,IC50-based peak height [1],IC50-based peak height [2],IC50-based peak height [3],IC50-based peak height [4],IC50-based peak height [5],IC50-based peak height [6],IC50-based peak height [7],IC50-based peak height [8],IC50-based peak height [9],IC50-based peak height [10],IC50-based peak height [11],IC50-based peak height [12],IC50-based peak height [13],IC50-based peak height [14],IC50-based peak height [15],IC50-based peak height [16],IC50-based peak height [17],IC50-based peak height [18],IC50-based peak height [19],further results
HQKLVFFAED [Aβ14-23 or APP 770 (H685-D694)],0,0,0,0,0,0,0,0,0,0,0,0,0,0,0,0,0,0,0,
EVHHQKLVFF [Aβ11-20 or APP 770 (E682-F691)],0,0,0,0,0,0,0,0,0,0,0,0,0,0,0,0,0,0,0,
YEVHHQKLVF [Aβ10-19 or APP 770 (Y681-F690)],0,0,0,0,0,0,0,0,0,0,0,0,0,0,0,10,0,0,0,
VHHQKLVFFA [Aβ12-21 or APP 770 (V683-A692)],0,0,0,0,0,0,0,0,0,0,0,0,0,0,0,27,0,0,0,
EFRHDSGYEV [Aβ3-12 or APP 770 (E674-V683)],0,0,0,0,0,0,0,0,0,0,0,0,0,0,0,0,0,0,0,% inhibition at 0 µg/mL [20]: 0%; % inhibition at 0.25 µg/mL [20]: 1%; % inhibition at 0.5 µg/mL [20]: 1%; % inhibition at 1 µg/mL [20]: 0%; % inhibition at 2 µg/mL [20]: 0%; % inhibition at 8 µg/mL [20]: 0%; % inhibition at 32 µg/mL [20]: 3%
AEFRHDSGYE [Aβ2-11 or APP 770 (A673-E682)],2,0,0,0,0,0,0,0,0,3,0,0,0,0,0,0,0,0,0,% inhibition at 0 µg/mL [20]: 0%; % inhibition at 0.25 µg/mL [20]: 3%; % inhibition at 0.5 µg/mL [20]: 0%; % inhibition at 1 µg/mL [20]: 0%; % inhibition at 2 µg/mL [20]: 0%; % inhibition at 8 µg/mL [20]: 6%; % inhibition at 32 µg/mL [20]: 19%
QKLVFFAEDV [Aβ15-24 or APP 770 (Q686-V695)],0,0,0,0,0,0,0,0,0,0,0,0,0,0,0,0,0,0,0,
GYEVHHQKLV [Aβ9-18 or APP 770 (G680-V689)],0,0,0,0,0,0,0,0,0,0,0,0,0,0,0,16,0,0,0,
HHQKLVFFAE [Aβ13-22 or APP 770 (H684-E693)],0,0,0,0,0,0,0,0,0,0,0,0,0,0,0,0,0,0,0,
